Molecular target: Full length human APOBEC3G (human) (UniProt Q9HC16)
Assay: time-lapse high-speed AFM

With “Full length human APOBEC3G (from UniProt Q9HC16 1-384) (enzyme)” as the substance, how does the stoichiometry N read?
Its stoichiometry N is 2.
